Measurements from the nanobody polyreactivity screen of Harvey et al. (2022).

experiment: yeast display, Sf9 membrane polyspecificity reagent, FACS + sequencing; frameworks hold sequencing errors
Procedure, shortened: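 A nanobody's polyreactivity label depends on the gate it was sorted from. Yeast display cells were stained with 10% biotinylated, detergent-solubilized Sf9 membrane reagent for 1 hour at 4 °C, enriched on streptavidin microbeads and sorted by FACS. The low and high (top ~1%) gates were set on anti-HA fluorescence for expression and streptavidin fluorescence for reagent binding.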

Sequence | polyreactivity (PSR sort gate)
QVQLVESGGGLVQAGGSLRLSCAASGITFTYNAMGWYRQAPGKERELVAAITWSGGSTYYADSVKGRFTISRDNAKYTVYLQMNSLKPEDTAVYYCNAKHFAYSVAHPYLRYGYDYWGQGTQVTVSS | low polyreactivity
QVQLVESGGGLVQAGGSLRLSCAASGITFTYYAMGWYRQAPGKERELVAAINWNGGSTYYADSVKGRFTISRDNAKNTVYLQMNSLKPEDTAVYYCAAEFYIYGFVKFDYWGQGTQVTVSS | high polyreactivity
QVQLVESGGGLVQAGGSLRLSCAASGITFTYYAMGWYRQAPGKERELVASITIGGGSTYYADSVKGRFTISRDNAKKTVYLQLNSLKPEYTAVYYCNAAFSVRHLYRYDYWGQGTQVTVSL | low polyreactivity
QVQLVESGGGLVQAGGSLRLSCAASGITFTYYARGWYRQAPGKEMELVAAISWSGGSTYYADSVKGRFTISRDNAKNTVYLQMNSLKPEDTAVYYCAATFSRFAYYYWGQGTQVTVSS | high polyreactivity
QVQLVESGGGLVQAGGSLRLSCAASGITFVANAMGWYRQAPGKERELVAAISYSGASTYADSVKGRFTISRDNAKNTVYLQMNSLKPEDTAVYYCAKDGPYTYGREIYVYWGQGTLVTVSS | low polyreactivity
QVQLVESGGGLVQAGGSLRLSCAASGITFVANAMGWYRQAPGKETELVAGITQTGGSTYYADSVKGRFTISRDKAKNTVYLQMNSQKPEDTAVYYCAATYRRLRYGKLYYYWGQGTQVTVSS | high polyreactivity
QVQLVESGGGLVQAGGSLRLSCAASGITFVDNAMGWYRQAPGKERELVAAISFSGDTTYYADSVKGRFTISRDNEKNTVYLQMNSLKPEDTAVYYCAAEYYYTWVYQYWEMDYWGQGTQVTVSS | low polyreactivity
QVQLVESGGGLVQAGGSLRLSCAASGITFVDYAMGWYRQAPGKEWELVAAITTGGSTNYADSVKGRFTISRDNAKNTVYLQMNRLKPEDTAVYYCNKRPVILYDYWGQGTQVTVSS | low polyreactivity
QVQLVESGGGLVQAGGSLRLSCAASGITFVFNVMGWSRQAPGKERELVADIRSGGTTNYADSVKGRFTISRDNAKNTVYIQMNSLKPEDTAVYYCAKEKYDYVGDYEVDYWGQGTQVTVSS | low polyreactivity
QVQLVESGGGLVQAGGSLRLSCAASGITFVFYTMGWYRQAPGKERELVAAITSSGVRTSYADSVKGRFTISRDNAKNTVYLQMNSLKPEDTAVYYCAAKPTYVHKPGYNYWGQGTQVTVSS | high polyreactivity
QVQLVESGGGLVQAGGSLRLSCAASGITFVGNAMGWYRQAPGKERELVAAITSSGSTHYADSVKGRFTISRDNAKNTVYLQMNSLKPEDTAVYYCAAVTRFSGGLYYYWGQGTQVTVSS | high polyreactivity
QVQLVESGGGLVQAGGSLRLSCAASGITFVQYAMGWYRQAPGKERELVAAITSDGRTYYADSVKGRFTISRDNAKNTVYLQMNSLKREDTAVYYCAADVWRYTAYGGAYRRDYWGQGTQVTVSS | low polyreactivity
QVQLVESGGGLVQAGGSLRLSCAASGITFVRNAMGWYRQAPGKERELVAAISGRGGITYYADSVKGRFTISRDNAKNTVYFQMNSLKPEDTAVYYCAASSAGSSYNYWGQGSQVTVSS | high polyreactivity
QVQLVESGGGLVQAGGSLRLSCAASGITFVRYAMGWYRQAPGKERELVATITRRGGSTYYADSVKGRFTISRDNAKNTVYLQMNSLKPEDTAVYYCAADAYIWLYTDFPAYDYWGQGTHVTVSS | high polyreactivity
QVQLVESGGGLVQAGGSLRLSCAASGITFVRYTMGWYRQAPGKERQFVAGITRGGSTCYADSVKGRFTISRDNAKNTVYLQMNSLKPEDTAVYYCAARPRFLRASVEYDYWGQGTQVTVSS | high polyreactivity
QVQLVESGGGLVQAGGSLRLSCAASGITFVVYTMGWYRQAPGKERELVASISISGDSTNYAESVKGRFTISRDNAKNTVYLQMNILKPEDTAVYYCNAAFYHVQFPWIAYEYWGQGTQVTVSP | low polyreactivity

Sequence | polyreactivity (PSR sort gate)
QVQLVESGGGLVQAGGSLRLSCAASGITFVYYAMGWYRQAPGKERELVAAISKNGGSTYYADSVKGRFTISRDNAMNTVYLQMNSLKPEDTAVYYCAAEEGYPWVRYNYWGQGPQVTVSS | high polyreactivity
QVQLVESGGGLVQAGGSLRLSCAASGITFWANAMGWYRQAPGKERELVASIRSSGGSTYYADSVKGRFTISRDNAKNTVYLQMNSLKPEDTAVYYCNARLGPLYVYRQYDSWGQGTQVTVSS | low polyreactivity
QVQLVESGGGLVQAGGSLRLSCAASGITFWDYAMGRYRQAPGKERELVAGISTRGGSTYYADSVKGRFTISRDNAKNTVYLQMNSLKPEDTAVYYCAADAQTSFGLGWGSDYDYWGQGTQVTVSS | low polyreactivity
QVQLVESGGGLVQAGGSLRLSCAASGITFWEYAMGWYRQAPGKERELVAAISRSGGSTYYADSVKGRFTISRDTAKNTVYLQMNSLKPEDTAVYYCAAYTRRPIYDYWGQGTQVTVSS | high polyreactivity
QVQLVESGGGLVQAGGSLRLSCAASGITFWEYAMGWYRQAPWKERELVAAISRSGGSTYYADSVKGRFTISRDNAKNTVYLQMNSLKPEDTAVYYCADETRRPIYDYWGQGTQVTVSS | high polyreactivity
QVQLVESGGGLVQAGGSLRLSCAASGITFWKYAMGWYRQAPGKERELVAAISGRGGSTYYADSVKGRFTISRDNAKNTVYLQMNSLKPEDTAVYSCDTRTYYRYPVFYWGQGTQVTVSS | high polyreactivity
QVQLVESGGGLVQAGGSLRLSCAASGITFWKYTMGWYIHAPGKERELVASITWSGGSTYYADSVKGRFTISRDNAKNTVYLQMNSLKPEDTAVYYCNAEYLRIDLDYWGQGTQVTVSS | low polyreactivity
QVQLVESGGGLVQAGGSLRLSCAASGITFWLYAMGWSRQAPGKERELVAGIDNGGSTTYADSVKGRFTISRDNAKNTVYLQMNSLNPEDTAVYYCAATFEWDPVYPYNGFIYDYWGQGTQVTVSS | high polyreactivity
QVQLVESGGGLVQAGGSLRLSCAASGITFWTYAMGGYRQAPGKERELVAAISKTVGSTFYADSVKGRFTISRDNAKNTVYLQMNSLKPEDTEVYYCNARRRRTVGWQYNYWGQGTQVTVSS | high polyreactivity
QVQLVESGGGLVQAGGSLRLSCAASGITFWVYVMGWYRQAPGKEREFVADISSGAGTTYYADSVKGRFTISRDNAKNTVYLQMNSLKPEDTAVYYCAARRWWPQWYDYWGQGTQVTVSS | high polyreactivity
QVQLVESGGGLVQAGGSLRLSCAASGITFWYYAMGWYRQAPGKERELVAAINWSGGSTYYADSVKGRFTISRDNAKNTVYLQMNSLKPEDTAVYYCAAEFGLWPYEYGYWGQGTQVTVSS | high polyreactivity
QVQLVESGGGLVQAGGSLRLSCAASGITFWYYAMGWYRQAPGKERELVAAITGGDSTNYADSVKGRFTISRDNAKNTVYLQMNSLKPEDTAVYYCNAEGSYEGYDDYWGHGTQVTVSS | high polyreactivity
QVQLVESGGGLVQAGGSLRLSCAASGITFWYYVMGWYRQAPGKERELFAAITLSGGSTYYADSVKGRFTISRDNAKNTVYLQMNSLKPEDTAVYYCNADGSAGIRGKYDYWGQGTQVTVSS | low polyreactivity
QVQLVESGGGLVQAGGSLRLSCAASGITFYEYAMGWYRQAPGKEREFVAAIDDGDSSTYYADSVKGRFTISRDNAKNTVYLQMNSLKPEDTAVYFCNADPYYDYSLNWGDYWGQGTQVTVSS | low polyreactivity
QVQLVESGGGLVQAGGSLRLSCAASGITFYEYAMGWYRQAPGKEREFVAAIDDGDSSTYYADSVKGRFTISRDNGKNTVYLQMNTLKPEDSAVFDCNADPYYDYSLNWGDYWGQGTQVTVSS | low polyreactivity
